Experimental data from patent US20120276102A1 (Pfizer, published 2012).

T1: human gamma (γ) common chain expressed on CHO cells (human, UniProt P31785 23-369)
T1 construct: whole, on cells; Control protein; also called human IL-2R-γ common subunit; human γ-common
T1 sequence (looked up): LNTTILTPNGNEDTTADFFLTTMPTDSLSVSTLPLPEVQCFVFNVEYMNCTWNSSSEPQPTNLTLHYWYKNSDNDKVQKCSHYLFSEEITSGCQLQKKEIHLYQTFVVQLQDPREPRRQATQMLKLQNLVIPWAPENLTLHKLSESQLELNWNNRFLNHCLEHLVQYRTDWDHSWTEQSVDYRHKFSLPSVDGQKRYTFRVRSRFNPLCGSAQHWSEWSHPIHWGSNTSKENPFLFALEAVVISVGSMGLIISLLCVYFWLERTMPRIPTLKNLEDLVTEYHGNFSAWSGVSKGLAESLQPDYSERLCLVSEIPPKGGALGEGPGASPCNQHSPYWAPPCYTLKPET


Assays:
[1] = biological target: T2, human IL-21R expressed on cells (human, UniProt Q9HBE5 20-538); test: cell-based or functional assay
T2 sequence (Q9HBE5 20-538 limits assumed): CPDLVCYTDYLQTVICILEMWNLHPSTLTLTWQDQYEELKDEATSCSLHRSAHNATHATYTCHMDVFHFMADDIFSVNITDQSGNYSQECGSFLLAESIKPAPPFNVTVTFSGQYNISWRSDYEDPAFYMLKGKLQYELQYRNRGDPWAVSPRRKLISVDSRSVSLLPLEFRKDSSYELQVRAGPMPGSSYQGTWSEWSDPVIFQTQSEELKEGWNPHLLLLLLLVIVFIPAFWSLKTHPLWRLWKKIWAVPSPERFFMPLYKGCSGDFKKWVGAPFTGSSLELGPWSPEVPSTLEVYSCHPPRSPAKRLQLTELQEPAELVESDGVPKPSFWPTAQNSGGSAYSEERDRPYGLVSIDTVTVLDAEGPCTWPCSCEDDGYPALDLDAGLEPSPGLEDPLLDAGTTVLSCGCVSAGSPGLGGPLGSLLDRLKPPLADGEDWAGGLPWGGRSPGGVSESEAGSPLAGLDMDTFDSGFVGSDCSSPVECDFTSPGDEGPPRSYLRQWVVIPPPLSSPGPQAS

[2] = biological target: T3, human complement component C1q (human, UniProt P02745 23-245; P02746 28-253; P02747 29-245); test: C1q ELISA: antibody coated on the plate, human serum 1:50, chicken anti-human C1q and HRP anti-chicken IgY
T3 construct: Native C1q in diluted human serum
T3 sequence (P02745 23-245, chain 1 of 3): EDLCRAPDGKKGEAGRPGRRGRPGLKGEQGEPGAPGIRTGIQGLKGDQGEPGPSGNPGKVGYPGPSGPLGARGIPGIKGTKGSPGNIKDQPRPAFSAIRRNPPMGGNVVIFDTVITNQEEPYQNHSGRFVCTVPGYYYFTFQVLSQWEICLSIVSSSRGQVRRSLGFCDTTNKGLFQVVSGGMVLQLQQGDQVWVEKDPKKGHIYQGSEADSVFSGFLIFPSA
T3 sequence (P02746 28-253, chain 2 of 3): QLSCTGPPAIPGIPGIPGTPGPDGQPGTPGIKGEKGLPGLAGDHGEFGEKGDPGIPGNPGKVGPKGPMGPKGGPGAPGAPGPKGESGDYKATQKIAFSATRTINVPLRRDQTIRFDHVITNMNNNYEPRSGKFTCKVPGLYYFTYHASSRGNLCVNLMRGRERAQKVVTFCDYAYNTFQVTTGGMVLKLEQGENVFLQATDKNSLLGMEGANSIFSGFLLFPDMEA
T3 sequence (P02747 29-245, chain 3 of 3): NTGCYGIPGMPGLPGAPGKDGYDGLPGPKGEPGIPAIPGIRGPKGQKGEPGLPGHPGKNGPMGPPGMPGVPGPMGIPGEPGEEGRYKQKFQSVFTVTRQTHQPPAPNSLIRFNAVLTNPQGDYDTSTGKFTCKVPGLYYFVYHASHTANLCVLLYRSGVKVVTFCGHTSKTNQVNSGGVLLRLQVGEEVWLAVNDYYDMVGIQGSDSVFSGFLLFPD
Experimental: In order to determine whether cell-surface binding by anti-IL-21R antibodies is likely to lead to complement-dependent cytotoxicity (CDC), the antibodies were tested for their ability to bind to the complement component C1q in an ELISA. […] Diluted antibodies (100 μl) were coated onto a COSTAR® high-binding ELISA plate (Corning Life Sciences, Lowell, Mass.) overnight at 4° C. Plates were washed 3× with PBS/Tween-20 and blocked with 200 μl of blocking buffer (0.1 M NaPO₄, 0.1 M NaCl, 0.1% gelatin, 0.01% Tween) for 1 hr at RT. Human serum previously determined to contain C1q (Quidel, San Diego, Calif.) was diluted 1:50 in PBS. After 1 hr of blocking, plates were washed and 100 μl of diluted serum was added to each well and incubated for 2 hr at RT on a shaker. Following three washes, 100 μl A of 0.1 μg/ml chicken polyclonal anti-human C1q antibody (AbCam, Cambridge, Mass.) was added to each well and incubated for 1 hr at RT. Plates were again washed and incubated with 100 μA of a rabbit polyclonal antibody to chicken Ig-Y—HRP diluted 1:4000 (AbCam) for 1 hr at RT. Plates were washed and developed with TMB for 5 min, followed by 50 μA of 1 M H₂SO₄ to stop the reaction, and then read at 450 nm.

[3] = biological target: T1, human gamma (γ) common chain expressed …; test: cell-based ELISA on CHO cells transiently expressing human gamma common chain; HRP anti-human IgG, A450
Procedure, shortened: (§1)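 Binding read by TMB colour after HRP anti-human IgG (1 hr, RT), stopped with H₂SO₄. Before that, IgG-containing conditioned media, serially diluted in 5% milk/PBS/CaMg, were applied 1 hr at RT to CHO-PA-Dukx cells transfected 48 hr earlier.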

[4] = biological target: T4, murine IL-21R expressed on cells (murine, UniProt Q9JHX3 20-529); test: cell-based or functional assay
T4 sequence (Q9JHX3 20-529 limits assumed): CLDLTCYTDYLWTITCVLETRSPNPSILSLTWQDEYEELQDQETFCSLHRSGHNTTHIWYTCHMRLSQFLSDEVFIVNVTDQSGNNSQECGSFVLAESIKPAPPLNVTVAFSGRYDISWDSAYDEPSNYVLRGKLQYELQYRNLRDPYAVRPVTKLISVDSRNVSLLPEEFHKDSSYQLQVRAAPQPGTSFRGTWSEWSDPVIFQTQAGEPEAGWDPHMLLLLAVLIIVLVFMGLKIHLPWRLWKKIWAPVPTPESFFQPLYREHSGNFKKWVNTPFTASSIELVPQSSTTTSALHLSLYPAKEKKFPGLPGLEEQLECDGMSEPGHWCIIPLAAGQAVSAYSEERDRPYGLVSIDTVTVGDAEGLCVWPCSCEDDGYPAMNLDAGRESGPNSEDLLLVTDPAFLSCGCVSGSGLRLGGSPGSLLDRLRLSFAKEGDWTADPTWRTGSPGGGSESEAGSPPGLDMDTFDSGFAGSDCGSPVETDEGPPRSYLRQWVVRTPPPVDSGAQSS

[5] = biological target: T2, human IL-21R expressed on cells; test: cell-based or functional assay; remark: listed apart in the source
[6] = biological target: T4, murine IL-21R expressed on cells; test: cell-based or functional assay; remark: listed apart in the source
[7] = biological target: T5, rat IL-21R expressed on cells (rat); test: cell-based ELISA on CHO cells transiently expressing rat IL-21R; HRP anti-human IgG, A450
T5 construct: whole, on cells
Procedure, shortened: as §1

[8] = biological target: T5, rat IL-21R expressed on cells; test: cell-based or functional assay
[9] = biological target: T2, human IL-21R expressed on cells; test: cell-based or functional assay; remark: listed apart in the source

Neutralization of human primary T cell Proliferation IC50 [1] [nM] | binding result [2] | binding result [3] | Murine IL-21R-BaF3 Neutralization IC50 [4] [nM] | Human IL-21R-BaF3 Neutralization IC50 [5] [nM] | Human IL-21R-TF1 Neutralization IC50 [5] [nM] | Neutralization of murine primary T cell Proliferation IC50 [6] [nM] | EC50 (read off the curve) [7] [nM] | IC50, rat T cell proliferation, experiment 1 [8] [nM] | IC50, rat T cell proliferation, experiment 2 [8] [nM] | IC50, IL-21-induced CD19 expression in human whole blood [9] [ng/mL] | IC50, IL-21-induced GZMB expression in human whole blood [9] [ng/mL] | IC50, IL-21-induced IFNG expression in human whole blood [9] [ng/mL] | IC50, IL-21-induced IL2Rα expression in human whole blood [9] [ng/mL] | IC50, IL-21-induced IL6 expression in human whole blood [9] [ng/mL] | IC50, IL-21-induced PRF1 expression in human whole blood [9] [ng/mL] | Binder
1.42 | – | no binding (tested: 13 nM) | 177 | 1.71 | 14 | > 85 | – | – | – | – | – | – | – | – | – | parental 18A5 antibody (antibody, V domains shown, also called 18A5 IgG) VH: QVQLQESGPGLVKTSETLSLTCAVSGYSISSGYYWGWIRQPPGKGLEWIGSISHTGNTYYNPPLKSRVTISVDTSKNQFSLKLSSVTAADTAVYYCARGGGISRPEYWGKGTLVTVSS VL: SSELTQDPPVSVALGQTVTLTCQGDSLRTYYASWYQQKSGQAPILLLYGKHKRPSGIPDRFSGSTSGDTASLTITGAQAEDEADYYCNSRDSSGNPHVLFGGGTQLTVL
0.03 | no binding | no binding (tested: 40 nM) | – | – | – | 1.79 | – | 173 | 105 | – | – | – | – | – | – | AbU (antibody, human IgG1, V domains shown, CDR3 graft, residue limits derived as for m29; also called VHP/VL25; VHPTM/VL25) VH: QVQLQESGPGLVKPSETLSLTCAVSGYSISSGYYWGWIRQPPGKGLEWIGSISHTGNTYYNPPLKSRVTISVDTSKNQFSLKLSSVTAADTAVYYCARGGGISRPEYWGQGTLVTVSS VL: SSELTQDPAVSVALGQTVRITCQGDSLRTYYASWYQQKPGQAPVLVIYGKHKRPSGIPDRFSGSSSGNTASLTITGAQAEDEADYYCTTRSNKGNPHVLFGGGTQLTVL

Further lines, the binder ahead of its results:

Binder | Neutralization of human primary T cell Proliferation IC50 [1] [nM] | binding result [2] | binding result [3] | Murine IL-21R-BaF3 Neutralization IC50 [4] [nM] | Human IL-21R-BaF3 Neutralization IC50 [5] [nM] | Human IL-21R-TF1 Neutralization IC50 [5] [nM] | Neutralization of murine primary T cell Proliferation IC50 [6] [nM] | EC50 (read off the curve) [7] [nM] | IC50, rat T cell proliferation, experiment 1 [8] [nM] | IC50, rat T cell proliferation, experiment 2 [8] [nM] | IC50, IL-21-induced CD19 expression in human whole blood [9] [ng/mL] | IC50, IL-21-induced GZMB expression in human whole blood [9] [ng/mL] | IC50, IL-21-induced IFNG expression in human whole blood [9] [ng/mL] | IC50, IL-21-induced IL2Rα expression in human whole blood [9] [ng/mL] | IC50, IL-21-induced IL6 expression in human whole blood [9] [ng/mL] | IC50, IL-21-induced PRF1 expression in human whole blood [9] [ng/mL]
AbP (antibody, human IgG1, V domains shown, CDR3 graft, residue limits derived as for m29; also called VHP/VL20; VHPTM/VL20) VH: QVQLQESGPGLVKPSETLSLTCAVSGYSISSGYYWGWIRQPPGKGLEWIGSISHTGNTYYNPPLKSRVTISVDTSKNQFSLKLSSVTAADTAVYYCARGGGISRPEYWGQGTLVTVSS VL: SSELTQDPAVSVALGQTVRITCQGDSLRTYYASWYQQKPGQAPVLVIYGKHKRPSGIPDRFSGSSSGNTASLTITGAQAEDEADYYCVSRSAKGNPHVLFGGGTQLTVL | 0.02 | no binding | no binding (tested: 40 nM) | – | – | – | – | – | – | – | – | – | – | – | – | –
AbO (antibody, human IgG1, V domains shown, CDR3 graft, residue limits derived as for m29; also called VHP/VL16; VHPTM/VL16) VH: QVQLQESGPGLVKPSETLSLTCAVSGYSISSGYYWGWIRQPPGKGLEWIGSISHTGNTYYNPPLKSRVTISVDTSKNQFSLKLSSVTAADTAVYYCARGGGISRPEYWGQGTLVTVSS VL: SSELTQDPAVSVALGQTVRITCQGDSLRTYYASWYQQKPGQAPVLVIYGKHKRPSGIPDRFSGSSSGNTASLTITGAQAEDEADYYCVTRSAKGNPHVLFGGGTQLTVL | 0.06 | no binding | no binding (tested: 40 nM) | – | – | – | 4.92 | ~0.4 | – | – | – | – | – | – | – | –
AbT (antibody, human IgG1, V domains shown, CDR3 graft, residue limits derived as for m29; also called VHP/VL9; VHPTM/VL9) VH: QVQLQESGPGLVKPSETLSLTCAVSGYSISSGYYWGWIRQPPGKGLEWIGSISHTGNTYYNPPLKSRVTISVDTSKNQFSLKLSSVTAADTAVYYCARGGGISRPEYWGQGTLVTVSS VL: SSELTQDPAVSVALGQTVRITCQGDSLRTYYASWYQQKPGQAPVLVIYGKHKRPSGIPDRFSGSSSGNTASLTITGAQAEDEADYYCVARSNKGNPHVLFGGGTQLTVL | 0.03 | – | no binding (tested: 40 nM) | 0.05 | 0.3 | 2.32 | 0.61 | ~1 | – | – | – | – | – | – | – | –
AbS (antibody, V domains shown, CDR3 graft, residue limits derived as for m29; also called VHP/VL6; VHPTM/VL6) VH: QVQLQESGPGLVKPSETLSLTCAVSGYSISSGYYWGWIRQPPGKGLEWIGSISHTGNTYYNPPLKSRVTISVDTSKNQFSLKLSSVTAADTAVYYCARGGGISRPEYWGQGTLVTVSS VL: SSELTQDPAVSVALGQTVRITCQGDSLRTYYASWYQQKPGQAPVLVIYGKHKRPSGIPDRFSGSSSGNTASLTITGAQAEDEADYYCMSRSIWGNPHVLFGGGTQLTVL | 0.06 | no binding | no binding (tested: 40 nM) | 0.04 | 0.68 | 6.67 | 0.02 | ~1 | 36 | 27.1 | 7 | < 3 | 15 | 2 | 5 | 7
AbR (antibody, human IgG1, V domains shown, CDR3 graft, residue limits derived as for m29; also called VH3/VL18; VH3DM/VL18) VH: QVQLQESGPGLVKPSETLSLTCAVSGYSISSGYYWGWIRQPPGKGLEWIGSISHTGNTYYNPPLKSRVTISVDTSKNQFSLKLSSVTAADTAVYYCARFMGFGRPEYWGQGTLVTVSS VL: SSELTQDPAVSVALGQTVRITCQGDSLRTYYASWYQQKPGQAPVLVIYGKHKRPSGIPDRFSGSSSGNTASLTITGAQAEDEADYYCVTRSVKGNPHVLFGGGTQLTVL | 0.04 | – | no binding (tested: 40 nM) | 0.34 | 0.56 | 1.63 | 0.13 | ~0.7 | – | – | – | – | – | – | – | –
AbQ (antibody, human IgG1, V domains shown, CDR3 graft, residue limits derived as for m29; also called VH3/VL2; VH3DM/VL2) VH: QVQLQESGPGLVKPSETLSLTCAVSGYSISSGYYWGWIRQPPGKGLEWIGSISHTGNTYYNPPLKSRVTISVDTSKNQFSLKLSSVTAADTAVYYCARFMGFGRPEYWGQGTLVTVSS VL: SSELTQDPAVSVALGQTVRITCQGDSLRTYYASWYQQKPGQAPVLVIYGKHKRPSGIPDRFSGSSSGNTASLTITGAQAEDEADYYCVARSVVGNPHVLFGGGTQLTVL | 0.08 | – | no binding (tested: 40 nM) | – | – | – | 0.85 | ~0.8 | – | – | – | – | – | – | – | –
